Assay results reported in patent publication US20130101549A1 (Biogen, published 2013).

How the values were obtained:
[1] = target: T1, human HER2/ErbB2 on cells (human, UniProt P04626 23-1255); assay: FACS on HER2-expressing cells
T1 construct: whole, on cells; also called hHER2/ErbB2; wild type HER2/ErbB

[2] = target: human LTβR on tumor cells (human, UniProt P36941 31-435); assay: cell-based or functional assay
human LTβR-Ig [3] = target: T2, human LTβR-Ig (human, UniProt P36941 31-227); assay: ELISA on coated LTbR-Ig
T2 construct: Expressed and purified in house; also called hLTbR-Ig; human LTBR-Ig
T2 sequence (P36941 31-227): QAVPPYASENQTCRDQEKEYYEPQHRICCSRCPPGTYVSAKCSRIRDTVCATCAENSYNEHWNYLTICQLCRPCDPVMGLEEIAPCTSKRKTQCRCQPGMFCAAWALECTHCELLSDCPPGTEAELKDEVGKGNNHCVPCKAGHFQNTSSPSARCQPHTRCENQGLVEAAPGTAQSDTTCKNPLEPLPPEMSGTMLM
Procedure: (§1) Human and murine ErbB2-Fc were obtained from R&D Systems. Wells of 96-well plates were coated with 2 ug/ml or 0.2 ug/ml of human or murine HER2-Fc by incubation overnight at 4-8° C. with either of these six proteins (80 ul/well of a 0.2 or 2 ug/ml solution in PBS). Wells were emptied, filled completely with a solution of PBS with 1% BSA (blocking buffer) and incubated at room temperature for 1 hour. Wells were emptied, washed twice PBS containing 0.05% Tween 20 (PBST) and filled with the samples (80 ul/well of 3× dilution series of the standard and supernatants in blocking buffer) prepared in another 96-well plate. After a 2-hour incubation at room temperature, the wells were emptied, washed three times with PBST and filled with a solution of HRP-conjugated goat pAbs anti-human kappa chain (80 ul/well of a 2000-fold dilution in blocking buffer). After 1-hour incubation, the wells were emptied and filled with a solution of HRP substrate prepared freshly. The color was left to develop for 3 minutes and was stopped by addition of an equal volume of 1N H₂SO₄. Absorbance was measured at 450 nm using a Plate Reader (SpectraMax, Molecular Devices). The data was processed and graphs were created using SoftMax Pro software.
Human and murine LTBR-Ig were expressed and purified in house.

human LTβR-Ig [4] = target: T2, human LTβR-Ig; assay: FACS (LTbR column of Table 2; format not told there)
murine HER2-Fc [5] = target: T3, murine HER2-Fc (mouse; human, UniProt P70424 23-653); assay: ELISA on coated muHER2-Fc, HRP anti-human kappa; the number is C of the printed 4-P fit (A 0.005, B 1.068, D 0.84, R^2 0.999); x axis: Fab equivalent concentration
T3 construct: extracellular domain; Bought from R&D Systems; also called murine ErbB2-Fc; not shown: Fc fragment of human IgG1
T3 sequence (P70424 23-653): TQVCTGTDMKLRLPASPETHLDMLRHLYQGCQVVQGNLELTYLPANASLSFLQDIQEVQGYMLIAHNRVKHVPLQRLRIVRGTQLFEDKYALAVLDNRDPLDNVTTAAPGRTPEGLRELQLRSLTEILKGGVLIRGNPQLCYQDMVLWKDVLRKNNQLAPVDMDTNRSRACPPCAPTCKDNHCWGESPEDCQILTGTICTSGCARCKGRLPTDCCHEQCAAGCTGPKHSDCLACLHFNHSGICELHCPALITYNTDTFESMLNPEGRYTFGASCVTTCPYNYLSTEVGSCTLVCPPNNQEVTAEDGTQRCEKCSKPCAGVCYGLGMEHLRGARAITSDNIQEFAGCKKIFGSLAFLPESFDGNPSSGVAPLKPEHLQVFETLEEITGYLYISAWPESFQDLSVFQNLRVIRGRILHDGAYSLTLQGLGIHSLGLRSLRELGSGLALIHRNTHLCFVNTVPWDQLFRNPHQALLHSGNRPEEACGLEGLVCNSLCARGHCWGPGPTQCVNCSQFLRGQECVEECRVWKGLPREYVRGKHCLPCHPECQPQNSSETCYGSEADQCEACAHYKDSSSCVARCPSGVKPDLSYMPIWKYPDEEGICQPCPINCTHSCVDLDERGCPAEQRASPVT

human HVEM-Ig [6] = target: T4, human HVEM-Ig (human, UniProt Q92956 39-202); assay: FACS (HVEM column of Table 2; format not told there)
T4 construct: Expressed and purified in house; also called HVEM-Fc; Herpes virus entry mediator-Ig
T4 sequence (looked up): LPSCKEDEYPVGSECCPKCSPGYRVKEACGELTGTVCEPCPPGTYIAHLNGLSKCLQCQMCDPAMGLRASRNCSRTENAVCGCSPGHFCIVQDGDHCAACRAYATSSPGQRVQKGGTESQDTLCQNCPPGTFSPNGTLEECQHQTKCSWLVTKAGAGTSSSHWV

human HVEM-Ig [7] = target: T4, human HVEM-Ig; assay: Octet biolayer interferometry, receptor-Fc on anti-human Fc biosensor, culture supernatant
Procedure: (§2) Anti-human Fc-specific biosensors (Fortebio SKU 18-0001) were hydrated in OB (1×PBS supplemented with 1 mg/ml BSA, 0.05% NaN₃, and 0.02% TWEEN 20) for at least five minutes prior to assays. For each assay, the respective receptor—Fc fusion was diluted to 10 μg/ml in OB and allowed to bind to the biosensors for five minutes. The sensors were then incubated in the indicated culture supernatant for an additional five minutes, and subsequently transferred to fresh wells […].

human HER2-Fc [8] = target: T5, human HER2-Fc (human, UniProt P04626 23-652); assay: as above
T5 construct: Bought from R&D Systems: homodimeric fusion of the HER2 extracellular domain and human IgG1 Fc; also called human ErbB2-Fc; rhErbB2-Fc; not shown: Fc fragment of human IgG1
Procedure: as §2

human LTβR-Ig [9] = target: T2, human LTβR-Ig; assay: as above
Procedure: as §2

human HER2-Fc [10] = target: T5, human HER2-Fc; assay: ELISA on coated HER2-Fc
Procedure: as §1

human HVEM-Ig [11] = target: T4, human HVEM-Ig; assay: ELISA on coated HVEM-Ig
Procedure: as §1
Human and murine HVEM-Ig were expressed and purified in house.

human HER2-Fc [12] = target: T5, human HER2-Fc; assay: ELISA on coated huHER2-Fc, HRP anti-human kappa; the number is C of the printed 4-P fit (A -0.059, B 0.832, D 1.098, R^2 0.998); x axis: Fab equivalent concentration
human LTBR-mIgG fusion = target: T6, human LTBR-mIgG fusion; assay: sandwich ELISA after incubation at 200 ng/ml in human serum (cold or 37°C overnight): HER2-Fc on the plate, human LTBR-mIgG, HRP anti-mouse IgG; the signal needs both bindings at once
T6 construct: kept apart from m25 (human Fc); not shown: exact end of the LTBR part
T6 sequence (chain, as listed by the source limits assumed): as the sequence (P36941 31-227) above
Procedure: An ELISA assay was developed to detect LIGHT-Ab fusions after incubation with human sera. Briefly, 200 ng/mL of LIGHT-Ab fusions were incubated overnight in human serum at 37° C. The serum was assayed in sandwich ELISA as follows. HER2-Fc was immobilized to a solid surface, and was used to capture the LIGHT-Ab fusions. The serum incubated fusion proteins were added to the solid surface. Detection was effected using a human LTBR-mIgG fusion to bind to the LIGHT moiety of the fusion. Horseradish peroxidase (HRP) labeled anti-mouse IgG was used to detect bound LIGHT-Ab fusions.

human HER2-Fc [13] = target: T5, human HER2-Fc; assay: ELISA on coated huHER2-Fc, HRP anti-human kappa; the number is C of the printed 4-P fit (A 0.006, B 1.142, D 0.89, R^2 1); x axis: Fab equivalent concentration
murine HER2-Fc [14] = target: T3, murine HER2-Fc; assay: ELISA on coated muHER2-Fc, HRP anti-human kappa; the number is C of the printed 4-P fit (A 0.008, B 1.027, D 0.896, R^2 1); x axis: Fab equivalent concentration
Procedure: as §1, with “Wells” for “Human and murine ErbB2-Fc were obtained from R&D Systems. Wells”, “coated” for “coated with 2 ug/ml or 0.2 ug/ml of human or murine HER2-Fc”, “goat antibodies against human kappa chain” for “either of these six proteins”, “5” for “0.2 or 2”
Human and murine HER2-Fc (homodimeric fusion proteins consisting of the extracellular domain of HER2 and the Fc fragment of human IgG1) were obtained from R&D Systems. […]

Sequence of human LTβR on tumor cells (P36941 31-435): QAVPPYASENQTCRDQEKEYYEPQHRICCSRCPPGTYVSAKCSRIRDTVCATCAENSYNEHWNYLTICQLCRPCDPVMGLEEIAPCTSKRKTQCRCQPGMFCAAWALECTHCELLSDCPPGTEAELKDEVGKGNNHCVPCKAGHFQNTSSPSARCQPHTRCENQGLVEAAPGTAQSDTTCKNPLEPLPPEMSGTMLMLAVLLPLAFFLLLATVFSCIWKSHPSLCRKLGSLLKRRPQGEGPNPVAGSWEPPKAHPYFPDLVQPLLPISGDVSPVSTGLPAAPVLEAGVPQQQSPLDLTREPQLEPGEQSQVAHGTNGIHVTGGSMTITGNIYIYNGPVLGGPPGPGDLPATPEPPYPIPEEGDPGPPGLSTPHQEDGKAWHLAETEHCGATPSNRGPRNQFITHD

B1: 71F10 Fab-hLIGHT fusion with the delta 4 linker (BIIB71F10-130) (other)
heavy: EVQLLESGGGLVQPGGSLRLSCAASGFTFSSYGMVWVRQAPGKGLEWVSSISSSGGLTWYADSVKGRFTISRDNSKNTLYLQMNSLRAEDTAVYYCASPPGIAVARDYWGQGTLVTVSSASTKGPSVFPLAPSSKSTSGGTAALGCLVKDYFPEPVTVSWNSGALTSGVHTFPAVLQSSGLYSLSSVVTVPSSSLGTQTYICNVNHKPSNTKVDKKVEPKSCDKLHWRLGEMVTRLPDGPAGSWQERRSHEVNPAAHLTGANSSLTGSGGPLLWETQLGLAFLRGLSYHDGALVVTKAGYYYIYSKVQLGGVGCPLGLASTITHGLYKRTPRYPEELELLVSQQSPCGRATSSSRVWWDSSFLGGVVHLEAGEEVVVRVLDERLVRLRDGTRSYFGAFMV
light: DIQMTQSPSSLSASVGDRVTITCRASQGISNYLAWYQQKPGKVPKLLIYAASTLQSGVPSRFSGSGSGTDFTLTISSLQPEDVATYYCQKYNSALLTFGGGTKVEIKRTVAAPSVFIFPPSDEQLKSGTASVVCLLNNFYPREAKVQWKVDNALQSGNSQESVTEQDSKDSTYSLSSTLTLSKADYEKHKVYACEVTHQGLSSPVTKSFNRGEC
notes: Fab heavy chain - linker - human LIGHT extracellular part; assembles as a trimer of Fab-LIGHT units; also called pBIIB71F10-130; LIGHT fusion #130
[1]
  EC50: 0.5 nM
[2]
  fold difference of gene expression, treated/untreated HT29 cells (qRT-PCR): CCL2 (MCP-1): 1050 fold
  fold difference of gene expression, treated/untreated HT29 cells (qRT-PCR): CCL5 (RANTES): 1220 fold
  fold difference of gene expression, treated/untreated HT29 cells (qRT-PCR): CCL7 (MCP-3): -527 fold
  fold difference of gene expression, treated/untreated HT29 cells (qRT-PCR): CCL21: 546 fold
  fold difference of gene expression, treated/untreated HT29 cells (qRT-PCR): CCR4: 1650 fold
  fold difference of gene expression, treated/untreated HT29 cells (qRT-PCR): CXCL2: 1130 fold
  fold difference of gene expression, treated/untreated HT29 cells (qRT-PCR): CXCL3: 1090 fold
  fold difference of gene expression, treated/untreated HT29 cells (qRT-PCR): CXCL5 (ENA-78/LIX): 1810 fold
  fold difference of gene expression, treated/untreated HT29 cells (qRT-PCR): CXCL9: 675 fold
  fold difference of gene expression, treated/untreated HT29 cells (qRT-PCR): CXCL10 (IP-10): 5270 fold
  fold difference of gene expression, treated/untreated HT29 cells (qRT-PCR): CXCL11 (I-TAC/IP9): 1730 fold
  fold difference of gene expression, treated/untreated HT29 cells (qRT-PCR): IFNA2: 193 fold
  fold difference of gene expression, treated/untreated HT29 cells (qRT-PCR): IL5: 940 fold
  fold difference of gene expression, treated/untreated HT29 cells (qRT-PCR): IL8: 373 fold
  fold difference of gene expression, treated/untreated HT29 cells (qRT-PCR): IL10RA: 3440 fold
  fold difference of gene expression, treated/untreated HT29 cells (qRT-PCR): LTB: 2910 fold
  fold difference of gene expression, treated/untreated HT29 cells (qRT-PCR): TNF: 7370 fold
Human LTβR-Ig [3]
  EC50: 0.01 nM
Human LTβR-Ig [4]
  EC50: 0.2 nM
Murine HER2-Fc [5]
  EC50: 0.0114 µg/mL
Human HVEM-Ig [6]
  EC50: 0.5 nM
Human HVEM-Ig [7]
  koff: 0.000122 s⁻¹
Human HER2-Fc [8]
  koff: 0.000112 s⁻¹
Human LTβR-Ig [9]
  koff: 0.000168 s⁻¹
Human HER2-Fc [10]
  EC50: 0.05 nM
Human HVEM-Ig [11]
  EC50: 0.01 nM
Human HER2-Fc [12]
  EC50: 0.00955 µg/mL

B2: 71F10 Fab-hLIGHT fusion with the G4S delta 4 linker (BIIB71F10-131) (other)
heavy: EVQLLESGGGLVQPGGSLRLSCAASGFTFSSYGMVWVRQAPGKGLEWVSSISSSGGLTWYADSVKGRFTISRDNSKNTLYLQMNSLRAEDTAVYYCASPPGIAVARDYWGQGTLVTVSSASTKGPSVFPLAPSSKSTSGGTAALGCLVKDYFPEPVTVSWNSGALTSGVHTFPAVLQSSGLYSLSSVVTVPSSSLGTQTYICNVNHKPSNTKVDKKVEPKSCDKGGGGSLHWRLGEMVTRLPDGPAGSWQERRSHEVNPAAHLTGANSSLTGSGGPLLWETQLGLAFLRGLSYHDGALVVTKAGYYYIYSKVQLGGVGCPLGLASTITHGLYKRTPRYPEELELLVSQQSPCGRATSSSRVWWDSSFLGGVVHLEAGEEVVVRVLDERLVRLRDGTRSYFGAFMV
light: B1 light
notes: Trimer of Fab-LIGHT units; also called pBIIB71F10-131
[1]
  EC50: 0.5 nM
Human LTBR-mIgG fusion
  binding result: binds
Human LTβR-Ig [3]
  EC50: 0.01 nM
Human LTβR-Ig [4]
  EC50: 0.2 nM
Human HVEM-Ig [6]
  EC50: 0.5 nM
Human HER2-Fc [8]
  koff: 0.000307 s⁻¹
Human LTβR-Ig [9]
  koff: 0.000183 s⁻¹
Human HER2-Fc [13]
  EC50: 0.00608 µg/mL
Murine HER2-Fc [14]
  EC50: 0.0139 µg/mL
Human HER2-Fc [10]
  EC50: 0.05 nM
Human HVEM-Ig [11]
  EC50: 0.01 nM
